Data from patent US20240287188A1 (KUMHO HT, published 2024).
Where a chain is given by its changes, count along the chain named.

B1: chimeric anti-ICAM-1 antibody SI9 (mouse SI9 variable regions, human IgG4/kappa constant regions) (antibody)
heavy: QVQLQQSGAELVRPGVSVKISCKGSGYTFTDYALHWVKQSHAKSLEWIGVISTYSGNTDYNQKFRGKATMTVDKSSTTAYLELARLTSEDSAIHYCARSLYFGSSGFDYWGQGTALTVSS
light: DVVLTQTPLSLPVNLGDQASISCRSSQTLVYRNGNTYLHWYLQKAGQSPKLLIYKVSNRFSGVPDRFSGSGSGTDFTLKISRVEAEDLGVYFCSQNTHFPYTFGGGTKIKR
notes: the hinge lies in the heavy chain; also called chimeric antibody SI9; SI9 Chimeric; not shown: human IgG4 heavy chain constant region, GenBank AIC59040.1 (printed), hinge 'CPSCP' modified to 'CPPCP' (position not pr); human kappa light chain constant region, GenBank AAA58989.1 (printed)
B2: humanized anti-ICAM-1 antibody H17L4 (VH17 + VL4), human IgG4/kappa (antibody, V domains shown)
VH: QVQLVQSGAEVKKPGASVKISCKGSGYTFTDYALHWVRQAPGQRLEWMGVISTYSGNTDYNQKFRGRATITVDTSASTAYMELSSLRSEDTAVYYCARSLYFGSSGFDYWGQGTALTVSS
VL: DVVLTQTPLSSPVTLGQPASISCRSSQTLVYRNGNTYLHWYQQRPGQPPRLLIYKVSNRFSGVPDRFSGSGAGTDFTLKISRVEAEDVGVYFCSQNTHFPYTFGGGTKLEIKT
notes: The Arg at the VL/CL junction is in neither entry; also called DNP007; DNP007 antibody (H17L4 antibody)
B3: humanized anti-ICAM-1 antibody H17L1 (VH17 + VL1), human IgG4/kappa (antibody, V domains shown)
VH: B2 VH
VL: B2 VL with T7S, S11L, P48S, A72S
B4: humanized anti-ICAM-1 antibody H17L3 (VH17 + VL3), human IgG4/kappa (antibody, V domains shown)
VH: B2 VH
VL: B2 VL with Q42L, P45A
notes: The Arg at the VL/CL junction is in neither entry
B5: humanized anti-ICAM-1 antibody H4L3 (VH4 + VL3), human IgG4/kappa (antibody, V domains shown)
VH: B2 VH with I20V, G24A, M48I, A68V, I70M, V72R, S77T, M81L
VL: B2 VL with Q42L, P45A
notes: as for B4
B6: humanized anti-ICAM-1 antibody H5L3 (VH5 + VL3), human IgG4/kappa (antibody, V domains shown)
VH: B2 VH with G24A, A68V, T74K, S77T
VL: B2 VL with Q42L, P45A
notes: as for B4

target: T1, ICAM-1 protein antigen (R&D System) (human, UniProt P05362 28-480); assay: BLI (Octet), antibody coupled to AR2G amine-reactive sensor, ICAM-1 in solution at 5 concentrations
T1 construct: The assay paragraphs say only 'ICAM-1 (R&D System)'; also called antigen ICAM-1; ICAM-1 antigen
Protocol: The Octet system (ForteBio) was used to compare the affinity of the H17L1 and H17L4 humanized antibodies to the antigen with the parent antibody. Each of three antibodies was attached to the amine reactive Bio-sensor AR2G (ForteBio), and 5 different concentrations of ICAM-1 antigen solution were added to induce antigen/antibody reactions to occur. Using the antigen/antibody reaction results, the binding constant (Kon) and the dissociation constant (Koff) were measured, and the affinity (KD) was calculated, and the results are shown in Table 10 and FIG. 8: […]

T1 sequence (P05362 28-480 limits assumed): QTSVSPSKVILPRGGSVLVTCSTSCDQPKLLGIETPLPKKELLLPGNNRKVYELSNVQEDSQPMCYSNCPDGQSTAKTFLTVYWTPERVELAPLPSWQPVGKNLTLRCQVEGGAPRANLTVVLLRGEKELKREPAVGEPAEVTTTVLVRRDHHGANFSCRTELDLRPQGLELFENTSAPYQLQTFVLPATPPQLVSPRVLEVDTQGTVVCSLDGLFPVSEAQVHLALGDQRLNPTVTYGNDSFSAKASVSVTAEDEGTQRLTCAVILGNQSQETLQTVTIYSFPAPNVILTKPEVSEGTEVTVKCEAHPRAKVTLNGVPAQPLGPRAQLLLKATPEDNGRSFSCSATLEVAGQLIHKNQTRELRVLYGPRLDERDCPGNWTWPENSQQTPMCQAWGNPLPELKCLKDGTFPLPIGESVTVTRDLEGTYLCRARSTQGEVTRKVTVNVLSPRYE

In order of rising Kd:
1. B3  3.43 nM
2. B2  3.62 nM
3. B1  10.3 nM

In order of rising koff:
1. B3  0.000853 s⁻¹
2. B2  0.000929 s⁻¹
3. B1  0.00169 s⁻¹

In order of falling kon:
1. B2  256000 M⁻¹ s⁻¹
2. B3  249000 M⁻¹ s⁻¹
3. B1  165000 M⁻¹ s⁻¹

target: T1, ICAM-1 protein antigen (R&D System); assay: ELISA, ICAM-1 coated 100 ng/well, anti-human Ig-HRP
Protocol: The antigen ICAM-1 (ICAM-1; R&D System) was coated on a 96 well plate at 100 ng per well, followed by blocking. The amount of the primary antibody was serially diluted twice from 80 ng/ml and bound for 1 hour at 37° C. and a secondary antibody diluted 1:10000 with goat anti-Human Ig-HRP conjugate (Jackson ImmunoResearch) was combined at 37° C. for 30 minutes. Each step was washed three times and reacted with TMB (3,3′,5,5′-Tetramethylbenzidine). After the reaction was stopped by treatment with 1N H₂SO₄ solution in the same amount (100 ul) as the TMB solution, the OD value was measured at 450 nm.

In order of falling “OD 450 nm at 2.5 ng/ml antibody” value:
1. B2  0.136 OD (450 nm)
2. B4  0.135 OD (450 nm)
3. B6  0.128 OD (450 nm)
4. B3  0.119 OD (450 nm)
5. B1  0.118 OD (450 nm)
6. B5  0.115 OD (450 nm)

In order of falling “OD 450 nm at 5 ng/ml antibody” value:
1. B2  0.236 OD (450 nm)
2. B6  0.208 OD (450 nm)
3. B4  0.201 OD (450 nm)
4. B5  0.189 OD (450 nm)
5. B3  0.186 OD (450 nm)
6. B1  0.182 OD (450 nm)

In order of rising “OD 450 nm at 10 ng/ml antibody” value:
1. B3  0.297 OD (450 nm)
2. B1  0.298 OD (450 nm)
3. B5  0.305 OD (450 nm)
4. B4  0.344 OD (450 nm)
5. B2  0.349 OD (450 nm)
6. B6  0.35 OD (450 nm)

In order of falling “OD 450 nm at 20 ng/ml antibody” value:
1. B2  0.637 OD (450 nm)
2. B6  0.592 OD (450 nm)
3. B4  0.567 OD (450 nm)
4. B5  0.52 OD (450 nm)
5. B3  0.506 OD (450 nm)
6. B1  0.473 OD (450 nm)

In order of rising “OD 450 nm at 40 ng/ml antibody” value:
1. B1  0.724 OD (450 nm)
2. B3  0.802 OD (450 nm)
3. B5  0.832 OD (450 nm)
4. B4  0.848 OD (450 nm)
5. B6  0.862 OD (450 nm)
6. B2  0.983 OD (450 nm)

In order of falling “OD 450 nm at 80 ng/ml antibody” value:
1. B6  1.25 OD (450 nm)
2. B2  1.24 OD (450 nm)
3. B5  1.23 OD (450 nm)
4. B4  1.2 OD (450 nm)
5. B1  1.14 OD (450 nm)
6. B3  1.11 OD (450 nm)

target: ICAM-1 expressed on the surface of the prostate cancer cell line Du145 (human) (UniProt P05362); assay: flow cytometry on Du145 cells expressing ICAM-1
Sequence (P05362 28-532): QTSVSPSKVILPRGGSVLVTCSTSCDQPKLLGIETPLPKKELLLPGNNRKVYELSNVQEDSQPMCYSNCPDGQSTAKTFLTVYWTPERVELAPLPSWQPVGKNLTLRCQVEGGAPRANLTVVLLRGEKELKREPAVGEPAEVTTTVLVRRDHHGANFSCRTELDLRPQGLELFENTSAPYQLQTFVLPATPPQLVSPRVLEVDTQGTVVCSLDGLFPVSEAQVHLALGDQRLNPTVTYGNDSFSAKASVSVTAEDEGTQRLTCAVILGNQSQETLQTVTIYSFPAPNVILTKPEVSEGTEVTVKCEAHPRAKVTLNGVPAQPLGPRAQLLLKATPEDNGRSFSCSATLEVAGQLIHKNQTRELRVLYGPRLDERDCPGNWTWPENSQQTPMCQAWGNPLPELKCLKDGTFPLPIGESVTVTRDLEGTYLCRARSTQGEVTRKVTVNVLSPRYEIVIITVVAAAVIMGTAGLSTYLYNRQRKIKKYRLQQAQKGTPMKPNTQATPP

Work on Negative control yielded a % Gated (marker M1) of 0.58%.

Negative control was tested, and the Mean (marker All) was 3.9.

Negative control was tested, and the Mean (marker M1) was 91.
